Test results from US7479478B2, “Human parathyroid hormone modifications, preparation and use” (The General Hospital Corporation, priority 1998, dated 2009).
No end group written: not given here.

Tests used:
Format in all cases: cell-based
[1] = biological target: T1, rat PTH-1 receptors (Rattus norvegicus, UniProt P25961); assay: PLC activation in COS-7 cells expressing rat PTH-1 receptors; conditions: up to 1000 nM
T1 construct: expressed in transfected cells
T1 sequence (P25961 27-591): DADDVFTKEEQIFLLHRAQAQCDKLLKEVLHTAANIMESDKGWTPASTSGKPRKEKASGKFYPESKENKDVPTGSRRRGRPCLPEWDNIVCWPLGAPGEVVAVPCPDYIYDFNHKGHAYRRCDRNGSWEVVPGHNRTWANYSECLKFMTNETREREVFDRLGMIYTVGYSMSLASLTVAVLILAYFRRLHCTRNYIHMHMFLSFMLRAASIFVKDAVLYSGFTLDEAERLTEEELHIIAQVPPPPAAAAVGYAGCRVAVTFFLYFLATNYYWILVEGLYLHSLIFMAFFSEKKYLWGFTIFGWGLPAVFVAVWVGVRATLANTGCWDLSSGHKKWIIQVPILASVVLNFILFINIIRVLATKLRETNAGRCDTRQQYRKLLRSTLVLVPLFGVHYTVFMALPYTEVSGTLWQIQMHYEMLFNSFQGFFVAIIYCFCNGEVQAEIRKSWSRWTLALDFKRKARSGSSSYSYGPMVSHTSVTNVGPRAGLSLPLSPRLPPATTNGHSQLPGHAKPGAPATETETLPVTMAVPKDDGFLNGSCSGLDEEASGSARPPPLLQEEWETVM
Description: (§1) HKRK B7 or EW5 cells (32), subclones of LLC-PKI renal epithelial cells that stably express human or rat PTH-1 receptors (950,000 and 320,000 receptors/cell, respectively), were maintained under 5% CO2 in air in Dulbecco's modified essential medium containing 7% fetal bovine serum (FBS) and 1% penicillin/streptomycin (GIBCO-BRL, Grand Island, N.Y.). HEK-293 and COS-7 cells were cultured similarly, except that 10% FBS was used in the medium. Cells were seeded into 24-well plates two days before assay at a density of 2-2.5×10^5 cells/well (HKRK B7 or EW 5 cells) or 6×10^5 cells/well (in 6-well plates) (HEK-293 cells). In experiments involving HEK-293 cells, DNA transfections were performed 24 hr after plating and inositol radiolabel was added 24 hr thereafter (see below). COS-7 cell transfections were performed as previously described (Gardella, T. J., et al., Endocrinology 132(5):2024-2030 (1993))
(§2) PLC was activated by PTH agonists in the presence of 30 mM LiCl at 37° C. for 30 min after 16 hr of labeling with [^3H]myo-inositol (3 uCi/ml) in serum-free medium containing 0.1% bovine serum albumin. The reactions were stopped by rapid aspiration and addition of cold 5% TCA. Water-soluble radiolabeled inositol trisphosphate (IP3) was isolated after ether extraction by ion-exchange chromatography (Guo, J., et al., Endocrinology 136(9):3884-3891 (1995)). […]

[2] = biological target: T2, human PTH-1 receptors (Homo sapiens, UniProt Q03431); assay: PLC activation (IP3 formation) in HKRK B7 cells; conditions: HKRK B7 cells; up to 1000 nM or 10 μM
T2 construct: expressed in transfected cells
T2 sequence (Q03431 27-593): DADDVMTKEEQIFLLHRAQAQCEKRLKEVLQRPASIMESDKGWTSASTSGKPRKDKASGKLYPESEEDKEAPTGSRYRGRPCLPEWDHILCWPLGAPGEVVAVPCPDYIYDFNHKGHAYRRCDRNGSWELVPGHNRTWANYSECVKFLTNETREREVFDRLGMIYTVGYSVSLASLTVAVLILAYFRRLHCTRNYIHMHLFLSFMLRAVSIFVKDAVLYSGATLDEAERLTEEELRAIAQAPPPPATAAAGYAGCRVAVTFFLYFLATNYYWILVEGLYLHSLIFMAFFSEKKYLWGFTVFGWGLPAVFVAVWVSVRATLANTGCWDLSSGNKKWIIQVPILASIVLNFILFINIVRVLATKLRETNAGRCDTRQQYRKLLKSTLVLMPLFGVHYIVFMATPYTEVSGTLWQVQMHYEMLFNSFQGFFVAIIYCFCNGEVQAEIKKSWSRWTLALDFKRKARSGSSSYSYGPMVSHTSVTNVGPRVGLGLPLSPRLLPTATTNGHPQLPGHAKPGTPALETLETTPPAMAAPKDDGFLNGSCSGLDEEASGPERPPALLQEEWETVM
Description: as §1
PLC was activated by PTH agonists in the presence of 30 mM LiCl at 37° C. for 30 min after 16 hr of labeling with [^3H]myo-inositol (3 uCi/ml) in serum-free medium containing 0.1% bovine serum albumin. The reactions were stopped by rapid aspiration and addition of cold 5% TCA. Water-soluble radiolabeled inositol trisphosphate (IP3) was isolated after ether extraction by ion-exchange chromatography (Guo, J., et al., Endocrinology 136(9):3884-3891 (1995)). In experiments involving HEK 293 cells, cells previously transfected with human PTHR cDNA (in the pcDNA1 expression vector HKRK) using Lipofectamine (Gibco BRL) were labeled with [^3H]myo-inositol and assayed as described above, except that total water-soluble [^3H]inositol polyphosphates were collected as a single fraction from the ion-exchange columns.

[3] = biological target: T2, human PTH-1 receptors; assay: PLC activation in COS-7 cells expressing human PTH-1 receptors; conditions: up to 1000 nM
Description: as §1, §2

Human PTH-(3-34): N-truncated human PTH peptide lacking Ser^1-Val^2 (SEIQLMHNLGKHLNSMERVEWLRKKLQDVHNF-NH2; UniProt P01270 34-65, looked up, fragment)
did not activate PLC: PLC activation, result in words [1] | PLC activation (IP3 formation), result in words [2] | PLC activation, result in words [3]
